Test [1] addresses T1, complement C5 (UniProt P01031 19-1676, limits assumed). Briefly: cell-based or functional assay.
Test [2] deals with T2, VEGF-A (human, UniProt P15692-4 27-191, limits assumed). Kind of test: cell-based or functional assay.
Test [3] deals with T1, complement C5. Kind of test: direct ELISA, C5 coated 100 ng/well, HRP anti-human Fc detection. In general terms: An ELISA detects its analyte on a solid surface through an enzyme-linked reagent.
Test [4] has as its target T2, VEGF-A. Briefly: direct ELISA, VEGF-A coated 100 ng/well, HRP anti-human Fc detection.

T2 sequence (P15692 other isoform, or with tags, fused parts or gaps limits assumed): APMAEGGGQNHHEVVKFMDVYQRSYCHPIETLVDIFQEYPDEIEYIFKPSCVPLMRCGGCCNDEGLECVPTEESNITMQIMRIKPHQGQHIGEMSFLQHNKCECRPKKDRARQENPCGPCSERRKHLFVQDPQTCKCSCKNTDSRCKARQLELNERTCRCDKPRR

B1: bi-functional fusion protein C5V (other)
chain 1: QVQLVQSGAEVKKPGASVKVSCKASGYIFSNYWIQWVRQAPGQGLEWMGEILPGSGSTEYTENFKDRVTMTRDTSTSTVYMELSSLRSEDTAVYYCARYFFGSSPNWYFDVWGQGTLVTVSSASTKGPSVFPLAPCSRSTSESTAALGCLVKDYFPEPVTVSWNSGALTSGVHTFPAVLQSSGLYSLSSVVTVPSSNFGTQTYTCNVDHKPSNTKVDKTVERKCCVECPPCPAPPVAGPSVFLFPPKPKDTLMISRTPEVTCVVVDVSQEDPEVQFNWYVDGVEVHNAKTKPREEQFNSTYRVVSVLTVLHQDWLNGKEYKCKVSNKGLPSSIEKTISKAKGQPREPQVYTLPPSQEEMTKNQVSLTCLVKGFYPSDIAVEWESNGQPENNYKTTPPVLDSDGSFFLYSRLTVDKSRWQEGNVFSCSVMHEALHNHYTQKSLSLSLGGGGSGGGGSGGGGSSDTGRPFVEMYSEIPEIIHMTEGRELVIPCRVTSPNITVTLKKFPLDTLIPDGKRIIWDSRKGFIISNATYKEIGLLTCEATVNGHLYKTNYLTHRQTNTIIDVVLSPSHGIELSVGEKLVLNCTARTELNVGIDFNWEYPSSKHQHKKLVNRDLKTQSGSEMKKFLSTLTIDGVTRSDQGLYTCAASSGLMTKKNSTFVRVHEK
chain 2: DIQMTQSPSSLSASVGDRVTITCGASENIYGALNWYQQKPGKAPKLLIYGATNLADGVPSRFSGSGSGTDFTLTISSLQPEDFATYYCQNVLNTPLTFGQGTKVEIKRTVAAPSVFIFPPSDEQLKSGTASVVCLLNNFYPREAKVQWKVDNALQSGNSQESVTEQDSKDSTYSLSSTLTLSKADYEKHKVYACEVTHQGLSSPVTKSFNRGEC
For orientation: EC50 means the concentration giving half of the maximal effect. Higher therefore signals weaker potency. On to B1, for which the “IC50, inhibition of the alternative complement pathway (hemolysis of rabbit erythrocytes by normal human serum)” value in test [1] came to 25.3 nM. For the same molecule, the “IC50, inhibition of VEGF-dependent HUVEC proliferation (MTS)” value in test [2] amounted to 0.195 nM. The half-maximal effective concentration (EC50) in test [3] was found to be 3.57 nM; in test [4], 0.288 nM.

These data come from patent US20200115443A1 (TRICAN BIOTECHNOLOGY, published 2020).
